Patent publication US20200262877A1, “ION CHANNEL-BINDING PEPTIDES AND METHODS OF USE THEREOF” (priority 2017, published 2020)

Experiments:
Kir2.1 = biological target: T1, Kir2.1 (Homo sapiens, UniProt P63252); experiment: Ion channel panel (IonWorks Barracuda): Kir2.1; format: cell-based; conditions: 100% = no change, <100% = inhibition
T1 construct: host or cells: HEK293 or CHO
How it was run: (§1)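 Transfected HEK293 or CHO cells were exposed for at least 5 min to peptides at 200 nM and 20 μM final, tested in duplicate, in HEPES-buffered physiological saline. Activation was taken as peptide-plus-agonist current over control current ×100, and inhibition as 1 minus that ratio ×100. Each channel's control was its own reference compound.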

NR2B = biological target: T2, NR2B (Homo sapiens, UniProt Q13224); experiment: Ion channel panel (IonWorks Barracuda): NR2B; format: cell-based; conditions: 100% = no change, <100% = inhibition
T2 construct: host or cells: HEK293 or CHO
How it was run: as §1

Nav1.5 = Nav1.5 (Homo sapiens, UniProt Q14524); experiment: in vitro; conditions: 100% = no change; for Activity of Nav1.5 with peptide, expressed as a percentage of the reference compound: peptide at 0.2 μM; for Activity of Nav1.5 with peptide (percentage of the reference compound): peptide at 20 μM
How it was run: as §1

hERG = hERG (Homo sapiens, UniProt Q12809); experiment: in vitro; conditions: 100% = no change, <100% = inhibition
How it was run: as §1

TRPV1 = biological target: T3, TRPV1 (Homo sapiens, UniProt Q8NER1); experiment: Ion channel panel (IonWorks Barracuda): TRPV1; format: cell-based; conditions: 100% = no change, <100% = inhibition
T3 construct: host or cells: HEK293 or CHO
How it was run: as §1

TRPA1 = biological target: T4, TRPA1 (Homo sapiens, UniProt O75762); experiment: Ion channel panel (IonWorks Barracuda): TRPA1; format: cell-based; conditions: 100% = no change, <100% = inhibition
T4 construct: host or cells: HEK293 or CHO
How it was run: as §1

Cav2.2 = biological target: T5, Cav2.2 (Homo sapiens, UniProt Q00975); experiment: cell-based; conditions: 100% = no change, <100% = inhibition
T5 construct: host or cells: HEK293 or CHO
How it was run: as §1

Kv2.1 = biological target: T6, Kv2.1 (Homo sapiens, UniProt Q14721); experiment: cell-based; conditions: 100% = no change, <100% = inhibition
T6 construct: host or cells: HEK293 or CHO
How it was run: as §1

Cav2.1 = biological target: T7, Cav2.1 (Homo sapiens, UniProt O00555); experiment: cell-based; conditions: 100% = no change, <100% = inhibition
T7 construct: host or cells: HEK293 or CHO
How it was run: as §1

α4β2 = biological target: T8, α4β2 (Homo sapiens, UniProt P17787+P43681); experiment: Ion channel panel (IonWorks Barracuda): α4β2; format: cell-based; conditions: 100% = no change, <100% = inhibition
T8 construct: host or cells: HEK293 or CHO
How it was run: as §1

Kv1.2 = biological target: T9, Kv1.2 (Homo sapiens, UniProt P16389); experiment: cell-based; format: cell-based; conditions: 100% = no change, <100% = inhibition
T9 construct: host or cells: HEK293 or CHO
How it was run: as §1

Kv1.3 = biological target: T10, Kv1.3 (Homo sapiens, UniProt P22001); experiment: cell-based; format: cell-based; conditions: 100% = no change, <100% = inhibition
T10 construct: host or cells: HEK293 or CHO
How it was run: as §1

Kv1.1 = biological target: T11, Kv1.1 (Homo sapiens, UniProt Q09470); experiment: cell-based; format: cell-based; conditions: 100% = no change, <100% = inhibition
T11 construct: host or cells: HEK293 or CHO
How it was run: as §1

α3β4 = biological target: T12, α3β4 (Homo sapiens, UniProt P30926+P32297); experiment: Ion channel panel (IonWorks Barracuda): α3β4; format: cell-based; conditions: 100% = no change, <100% = inhibition
T12 construct: host or cells: HEK293 or CHO
How it was run: as §1

5HT3a = biological target: T13, 5HT3a (Homo sapiens, UniProt P46098); experiment: Ion channel panel (IonWorks Barracuda): 5HT3a; format: cell-based
T13 construct: host or cells: HEK293 or CHO
T13 sequence (P46098 whole entry, looked up): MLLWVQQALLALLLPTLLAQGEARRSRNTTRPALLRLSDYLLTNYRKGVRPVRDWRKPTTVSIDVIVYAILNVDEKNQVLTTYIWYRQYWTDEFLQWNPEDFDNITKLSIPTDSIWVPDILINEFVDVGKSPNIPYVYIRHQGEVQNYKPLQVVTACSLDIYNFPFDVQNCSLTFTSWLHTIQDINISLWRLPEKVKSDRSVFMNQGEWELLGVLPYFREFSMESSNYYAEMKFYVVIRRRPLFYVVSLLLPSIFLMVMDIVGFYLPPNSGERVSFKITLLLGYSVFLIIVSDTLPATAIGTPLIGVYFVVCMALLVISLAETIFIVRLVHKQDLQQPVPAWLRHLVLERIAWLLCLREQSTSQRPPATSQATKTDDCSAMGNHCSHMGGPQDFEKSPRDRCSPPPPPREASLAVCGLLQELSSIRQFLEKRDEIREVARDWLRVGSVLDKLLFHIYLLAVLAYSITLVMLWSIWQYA
How it was run: as §1

GABA = experiment: Ion channel panel (IonWorks Barracuda): GABA; format: cell-based; conditions: 100% = no change, <100% = inhibition
How it was run: as §1

NR2A = biological target: T14, NR2A (Homo sapiens, UniProt Q12879); experiment: Ion channel panel (IonWorks Barracuda): NR2A; format: cell-based; conditions: 100% = no change, <100% = inhibition
T14 construct: host or cells: HEK293 or CHO
How it was run: as §1

Nav1.7 = biological target: T15, Nav1.7 (Homo sapiens, UniProt Q15858); experiment: cell-based; format: cell-based; conditions: 100% = no change; for Activity of Nav1.7 with peptide, expressed as a percentage of the reference compound: peptide at 0.2 μM; for Activity of Nav1.7 with peptide (percentage of the reference compound): peptide at 20 μM
T15 construct: host or cells: HEK293 or CHO

[1] = first of two Nav1.5 columns (probably TP1)
[2] = second of two Nav1.5 columns (probably TP2)
[3] = first of two Nav1.7 columns (probably TP1)
[4] = second of two Nav1.7 columns (probably TP2)

T15 sequence (Q15858 whole entry): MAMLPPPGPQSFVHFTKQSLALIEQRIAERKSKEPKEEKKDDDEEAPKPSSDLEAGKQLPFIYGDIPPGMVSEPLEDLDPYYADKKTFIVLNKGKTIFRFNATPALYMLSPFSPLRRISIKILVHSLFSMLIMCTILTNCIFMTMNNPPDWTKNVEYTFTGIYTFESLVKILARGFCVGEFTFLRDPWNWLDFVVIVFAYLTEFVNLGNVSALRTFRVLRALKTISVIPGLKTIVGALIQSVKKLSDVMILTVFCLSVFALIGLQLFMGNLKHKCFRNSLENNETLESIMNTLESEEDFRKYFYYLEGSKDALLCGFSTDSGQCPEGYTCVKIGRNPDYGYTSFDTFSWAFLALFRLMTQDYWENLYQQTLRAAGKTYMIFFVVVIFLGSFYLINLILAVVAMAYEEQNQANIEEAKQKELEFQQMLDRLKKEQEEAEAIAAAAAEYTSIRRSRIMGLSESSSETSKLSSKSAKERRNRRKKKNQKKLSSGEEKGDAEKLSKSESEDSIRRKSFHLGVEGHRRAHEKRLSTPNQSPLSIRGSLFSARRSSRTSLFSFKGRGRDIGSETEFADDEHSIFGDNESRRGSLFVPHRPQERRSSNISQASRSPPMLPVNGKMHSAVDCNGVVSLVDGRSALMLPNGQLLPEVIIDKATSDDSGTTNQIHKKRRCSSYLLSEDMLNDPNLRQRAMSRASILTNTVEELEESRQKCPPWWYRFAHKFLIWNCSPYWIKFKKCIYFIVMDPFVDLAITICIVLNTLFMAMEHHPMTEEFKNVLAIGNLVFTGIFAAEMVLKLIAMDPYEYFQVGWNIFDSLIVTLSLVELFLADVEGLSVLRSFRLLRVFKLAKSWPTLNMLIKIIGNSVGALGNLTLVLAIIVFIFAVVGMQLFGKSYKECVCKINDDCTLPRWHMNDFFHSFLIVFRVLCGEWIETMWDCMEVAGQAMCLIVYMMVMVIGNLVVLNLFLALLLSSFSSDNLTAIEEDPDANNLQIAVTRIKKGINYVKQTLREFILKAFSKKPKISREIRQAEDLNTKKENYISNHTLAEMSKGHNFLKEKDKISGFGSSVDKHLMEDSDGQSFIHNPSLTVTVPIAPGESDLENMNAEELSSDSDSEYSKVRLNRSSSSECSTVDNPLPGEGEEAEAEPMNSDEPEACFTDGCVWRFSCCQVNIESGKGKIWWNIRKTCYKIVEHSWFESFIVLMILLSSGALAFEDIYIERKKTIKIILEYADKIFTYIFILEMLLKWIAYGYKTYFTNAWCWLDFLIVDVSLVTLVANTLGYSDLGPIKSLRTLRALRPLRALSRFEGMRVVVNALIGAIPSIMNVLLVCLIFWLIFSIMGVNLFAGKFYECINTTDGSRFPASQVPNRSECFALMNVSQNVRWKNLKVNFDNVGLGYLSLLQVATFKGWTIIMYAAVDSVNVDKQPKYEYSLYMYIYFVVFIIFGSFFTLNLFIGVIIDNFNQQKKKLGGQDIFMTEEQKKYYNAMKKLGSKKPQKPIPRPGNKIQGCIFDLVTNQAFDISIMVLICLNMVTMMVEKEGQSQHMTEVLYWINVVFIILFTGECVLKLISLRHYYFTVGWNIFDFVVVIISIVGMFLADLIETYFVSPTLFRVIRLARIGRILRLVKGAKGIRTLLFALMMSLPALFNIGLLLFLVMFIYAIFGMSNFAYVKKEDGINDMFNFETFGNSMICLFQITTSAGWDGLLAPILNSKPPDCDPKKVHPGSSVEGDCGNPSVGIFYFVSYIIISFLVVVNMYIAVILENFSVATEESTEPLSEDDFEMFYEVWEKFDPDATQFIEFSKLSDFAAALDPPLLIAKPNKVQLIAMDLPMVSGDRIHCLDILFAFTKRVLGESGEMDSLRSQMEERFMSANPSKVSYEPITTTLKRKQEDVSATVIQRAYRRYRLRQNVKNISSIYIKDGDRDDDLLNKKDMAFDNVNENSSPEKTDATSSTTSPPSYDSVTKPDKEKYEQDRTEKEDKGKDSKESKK
Nav1.5, sequence (Q14524 whole entry): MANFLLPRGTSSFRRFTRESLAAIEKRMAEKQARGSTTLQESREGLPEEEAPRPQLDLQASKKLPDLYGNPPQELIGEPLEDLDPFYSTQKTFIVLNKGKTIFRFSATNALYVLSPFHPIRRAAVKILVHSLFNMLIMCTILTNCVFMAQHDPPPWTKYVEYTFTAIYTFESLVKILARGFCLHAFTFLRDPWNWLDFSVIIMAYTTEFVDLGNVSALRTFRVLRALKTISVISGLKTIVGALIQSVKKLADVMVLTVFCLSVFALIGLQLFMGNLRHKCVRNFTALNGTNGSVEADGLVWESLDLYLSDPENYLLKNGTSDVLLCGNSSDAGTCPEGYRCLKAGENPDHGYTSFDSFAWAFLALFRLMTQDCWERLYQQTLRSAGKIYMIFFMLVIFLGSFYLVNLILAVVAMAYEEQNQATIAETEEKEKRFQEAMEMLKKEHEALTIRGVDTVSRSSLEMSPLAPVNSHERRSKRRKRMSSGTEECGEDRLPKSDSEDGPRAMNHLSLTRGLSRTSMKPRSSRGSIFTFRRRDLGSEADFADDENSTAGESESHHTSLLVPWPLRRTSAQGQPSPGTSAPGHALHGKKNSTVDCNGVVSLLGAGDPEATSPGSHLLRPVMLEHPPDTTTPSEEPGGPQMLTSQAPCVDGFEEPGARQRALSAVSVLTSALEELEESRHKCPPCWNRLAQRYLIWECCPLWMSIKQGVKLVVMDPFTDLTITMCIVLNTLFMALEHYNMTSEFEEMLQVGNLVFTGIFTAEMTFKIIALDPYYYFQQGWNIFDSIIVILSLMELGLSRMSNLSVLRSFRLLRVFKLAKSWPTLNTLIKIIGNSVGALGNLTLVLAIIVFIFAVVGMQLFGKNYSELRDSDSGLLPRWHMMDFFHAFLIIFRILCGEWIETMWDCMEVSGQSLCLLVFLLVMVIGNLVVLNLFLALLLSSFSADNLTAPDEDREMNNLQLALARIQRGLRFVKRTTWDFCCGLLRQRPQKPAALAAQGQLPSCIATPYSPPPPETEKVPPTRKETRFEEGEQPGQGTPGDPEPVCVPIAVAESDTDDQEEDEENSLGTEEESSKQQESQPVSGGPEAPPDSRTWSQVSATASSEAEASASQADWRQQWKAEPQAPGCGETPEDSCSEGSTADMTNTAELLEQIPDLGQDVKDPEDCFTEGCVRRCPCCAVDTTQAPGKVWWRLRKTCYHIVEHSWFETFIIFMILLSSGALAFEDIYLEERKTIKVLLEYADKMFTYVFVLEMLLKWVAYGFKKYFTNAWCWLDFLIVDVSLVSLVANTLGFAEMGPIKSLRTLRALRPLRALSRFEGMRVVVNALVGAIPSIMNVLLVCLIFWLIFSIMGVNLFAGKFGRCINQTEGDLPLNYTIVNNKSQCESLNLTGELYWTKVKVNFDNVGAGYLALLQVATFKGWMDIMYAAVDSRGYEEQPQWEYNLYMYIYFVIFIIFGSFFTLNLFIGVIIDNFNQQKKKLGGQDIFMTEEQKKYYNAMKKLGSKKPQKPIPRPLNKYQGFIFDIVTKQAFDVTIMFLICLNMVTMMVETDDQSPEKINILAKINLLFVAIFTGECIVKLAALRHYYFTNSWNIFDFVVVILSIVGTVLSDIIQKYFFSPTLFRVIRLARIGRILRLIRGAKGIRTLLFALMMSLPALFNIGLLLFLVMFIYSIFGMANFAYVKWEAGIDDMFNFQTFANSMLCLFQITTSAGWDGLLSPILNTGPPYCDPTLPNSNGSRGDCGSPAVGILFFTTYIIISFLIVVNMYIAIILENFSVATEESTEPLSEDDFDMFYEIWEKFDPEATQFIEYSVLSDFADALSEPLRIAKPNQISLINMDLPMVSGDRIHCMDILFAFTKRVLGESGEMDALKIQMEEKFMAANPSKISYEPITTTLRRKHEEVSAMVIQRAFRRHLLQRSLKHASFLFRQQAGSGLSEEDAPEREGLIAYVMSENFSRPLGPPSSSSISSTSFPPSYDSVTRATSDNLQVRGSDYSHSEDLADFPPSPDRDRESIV
T9 sequence (P16389 whole entry): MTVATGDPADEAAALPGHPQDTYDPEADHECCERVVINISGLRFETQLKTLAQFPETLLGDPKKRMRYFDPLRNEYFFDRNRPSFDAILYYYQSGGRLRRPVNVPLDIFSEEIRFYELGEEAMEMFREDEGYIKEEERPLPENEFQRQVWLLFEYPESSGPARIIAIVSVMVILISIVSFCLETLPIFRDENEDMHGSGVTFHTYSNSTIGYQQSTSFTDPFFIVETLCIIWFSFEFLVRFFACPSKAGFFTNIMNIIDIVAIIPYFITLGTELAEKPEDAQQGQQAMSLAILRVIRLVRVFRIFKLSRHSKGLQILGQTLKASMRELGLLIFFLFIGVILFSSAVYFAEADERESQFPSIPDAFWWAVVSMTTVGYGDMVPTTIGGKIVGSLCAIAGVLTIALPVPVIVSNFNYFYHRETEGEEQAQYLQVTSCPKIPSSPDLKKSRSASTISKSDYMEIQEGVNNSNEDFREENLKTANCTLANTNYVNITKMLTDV
T10 sequence (P22001 whole entry): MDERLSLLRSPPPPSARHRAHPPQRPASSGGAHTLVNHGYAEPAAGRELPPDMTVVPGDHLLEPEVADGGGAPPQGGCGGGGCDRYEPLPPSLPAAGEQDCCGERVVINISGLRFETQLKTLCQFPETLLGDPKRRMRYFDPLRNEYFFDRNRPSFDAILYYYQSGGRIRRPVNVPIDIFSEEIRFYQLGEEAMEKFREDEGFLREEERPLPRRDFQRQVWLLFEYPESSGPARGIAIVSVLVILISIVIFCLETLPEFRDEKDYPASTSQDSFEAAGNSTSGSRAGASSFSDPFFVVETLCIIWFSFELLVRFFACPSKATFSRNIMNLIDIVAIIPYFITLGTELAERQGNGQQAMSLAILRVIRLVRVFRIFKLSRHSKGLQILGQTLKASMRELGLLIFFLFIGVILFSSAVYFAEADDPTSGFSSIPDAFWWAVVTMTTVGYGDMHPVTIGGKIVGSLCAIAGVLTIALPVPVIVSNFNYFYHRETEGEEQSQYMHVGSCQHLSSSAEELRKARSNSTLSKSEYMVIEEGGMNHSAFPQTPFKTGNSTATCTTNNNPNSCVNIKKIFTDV

Substance: 17 (GSRPTDIKCSASYQCFPVCKSRFGKTNGRCVNGLCDCF) [compound 17]
- Activity of Kir2.1 with peptide, expressed as a percentage of the reference compound (Kir2.1; peptide at 0.2 μM): 103%
- Activity of Kir2.1 with peptide (percentage of the reference compound) (Kir2.1; peptide at 20 μM): 84%
- Activity of NR2B with peptide, expressed as a percentage of the reference compound (NR2B; peptide at 0.2 μM): 90%
- Activity of NR2B with peptide (percentage of the reference compound) (NR2B; peptide at 20 μM): 77%
- Activity of Nav1.5 with peptide, expressed as a percentage of the reference compound (Nav1.5; [1]): 96%
- Activity of Nav1.5 with peptide, expressed as a percentage of the reference compound (Nav1.5; [2]): 95%
- Activity of Nav1.5 with peptide (percentage of the reference compound) (Nav1.5; [1]): 95%
- Activity of Nav1.5 with peptide (percentage of the reference compound) (Nav1.5; [2]): 94%
- Activity of hERG with peptide, expressed as a percentage of the reference compound (hERG; peptide at 0.2 μM): 85%
- Activity of hERG with peptide (percentage of the reference compound) (hERG; peptide at 20 μM): 8%
- Activity of TRPV1 with peptide, expressed as a percentage of the reference compound (TRPV1; peptide at 0.2 μM): 99%
- Activity of TRPV1 with peptide (percentage of the reference compound) (TRPV1; peptide at 20 μM): 82%
- Activity of TRPA1 with peptide, expressed as a percentage of the reference compound (TRPA1; peptide at 0.2 μM): 176%
- Activity of TRPA1 with peptide (percentage of the reference compound) (TRPA1; peptide at 20 μM): 129%
- Activity of Cav2.2 with peptide, expressed as a percentage of the reference compound (Cav2.2; peptide at 0.2 μM): 117%
- Activity of Cav2.2 with peptide (percentage of the reference compound) (Cav2.2; peptide at 20 μM): 100%
- Activity of Kv2.1 with peptide, expressed as a percentage of the reference compound (Kv2.1; peptide at 0.2 μM): 88%
- Activity of Kv2.1 with peptide (percentage of the reference compound) (Kv2.1; peptide at 20 μM): 93%
- Activity of Cav2.1 with peptide, expressed as a percentage of the reference compound (Cav2.1; peptide at 0.2 μM): 107%
- Activity of Cav2.1 with peptide (percentage of the reference compound) (Cav2.1; peptide at 20 μM): 90%
- Activity of a4b2 with peptide, expressed as a percentage of the reference compound (α4β2; peptide at 0.2 μM): 93%
- Activity of a4b2 with peptide (percentage of the reference compound) (α4β2; peptide at 20 μM): 78%
- Activity of Kv1.2 with peptide, expressed as a percentage of the reference compound (Kv1.2; peptide at 0.2 μM): 97%
- Activity of Kv1.2 with peptide (percentage of the reference compound) (Kv1.2; peptide at 20 μM): 47%
- Activity of Kv1.3 with peptide, expressed as a percentage of the reference compound (Kv1.3; peptide at 0.2 μM): 96%
- Activity of Kv1.3 with peptide (percentage of the reference compound) (Kv1.3; peptide at 20 μM): 6%
- Activity of Kv1.1 with peptide, expressed as a percentage of the reference compound (Kv1.1; peptide at 0.2 μM): 106%
- Activity of Kv1.1 with peptide (percentage of the reference compound) (Kv1.1; peptide at 20 μM): 89%
- Activity of a3b4 with peptide, expressed as a percentage of the reference compound (α3β4; peptide at 0.2 μM): 98%
- Activity of a3b4 with peptide (percentage of the reference compound) (α3β4; peptide at 20 μM): 97%
- Activity of 5HT3a with peptide (percentage of the reference compound) (5HT3a): 85%
- Activity of 5HT3a with peptide, expressed as a percentage of the reference compound (5HT3a): 81%
- Activity of GABA with peptide, expressed as a percentage of the reference compound (GABA; peptide at 0.2 μM): 97%
- Activity of GABA with peptide (percentage of the reference compound) (GABA; peptide at 20 μM): 108%
- Activity of NR2A with peptide, expressed as a percentage of the reference compound (NR2A; peptide at 0.2 μM): 83%
- Activity of NR2A with peptide (percentage of the reference compound) (NR2A; peptide at 20 μM): 96%
- Activity of Nav1.7 with peptide, expressed as a percentage of the reference compound (Nav1.7; [3]): 66%
- Activity of Nav1.7 with peptide, expressed as a percentage of the reference compound (Nav1.7; [4]): 61%
- Activity of Nav1.7 with peptide (percentage of the reference compound) (Nav1.7; [3]): 75%
- Activity of Nav1.7 with peptide (percentage of the reference compound) (Nav1.7; [4]): 60%
